We go through two molecules from patent publication US20100197896A1 (published 2010).

This assay concerns the target T1, human CD20 antigen (human, UniProt P11836 1-297).
T1 construct: whole, on cells; also called MS4A1
T1 sequence (looked up): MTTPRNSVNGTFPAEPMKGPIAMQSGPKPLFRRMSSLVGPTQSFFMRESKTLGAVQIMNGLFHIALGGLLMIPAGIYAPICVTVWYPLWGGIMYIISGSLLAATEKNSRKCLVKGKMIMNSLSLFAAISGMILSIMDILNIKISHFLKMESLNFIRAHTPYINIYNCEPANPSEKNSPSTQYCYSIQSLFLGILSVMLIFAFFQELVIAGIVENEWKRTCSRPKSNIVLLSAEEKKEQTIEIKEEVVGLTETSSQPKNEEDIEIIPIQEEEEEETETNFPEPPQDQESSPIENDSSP
The assay can be described thus: competition flow cytometry against FITC-conjugated fr1F5 (FIG. 6). Background: A flow cytometer gives signals particle by particle.

B1: framework-re-engineered 1F5 antibody (antibody, V domains shown)
VH: QVQLVASGAEVNKPGASVKVSCKASGYTFTSYNMHWVRQPPGRGLEWIGAIYPGNGDTSYNQKFKGRVTITADKSTSTAYMELSSLRSEDTAVYYCARSHYGSNYVDYFDYWGQGTTVTVSS
VL: DIQLTQSPSSLSASVGDRVTITCRASSSLSFMHWYQQKPGQAPVPVIYATSNLASGVPSRFSGSGSGTEFTLTISSLQPEDFATYFCHQWSSNPLTFGAGTKLTVLR
notes: also called fr1F5
Consider B1, for which the binding result is reported as “binds”.

B2: murine 1F5 antibody (antibody, V domains shown)
VH: QVQLRQPGAELVKPGASVKMSCKASGYTFTSYNMHWVKQTPGQGLEWIGAIYPGNGDTSYNQKFKGKATLTADKSSSTAYMQLSSLTSEDSAVYYCARSHYGSNYVDYFDYWGQGTTLTVSS
VL: QIVLSQSPAILSASPGEKVTMTCRASSSLSFMHWYQQKPGSSPKPWIYATSNLASGVPARFSGSGSGTSYSLTISRVEAEDAATYFCHQWSSNPLTFGAGTKLELKR
notes: Mouse IgG with a kappa light chain, from hybridoma ATCC HB-9645; also called anti-CD20 mAb 1F5
For B2, the binding result is on record as “binds”.
